# In patent US20030064482A1:
# Columns and labels:
# [1] = biological target: GIT mucin; assay: specificity/enzyme activity assay, GIT mucin-coated plate (negative control), substrate in PBS pH 7.2; supernatant concentrated
# [2] = biological target: CEA (carcinoembryonic antigen) (UniProt P06731); assay: specificity/enzyme activity assay, CEA-coated plate, substrate in 0.2 M sodium acetate buffer + 0.01% BSA pH 5; supernatant diluted 1:64
# [3] = biological target: CEA (carcinoembryonic antigen) (UniProt P06731); assay: specificity/enzyme activity assay, CEA-coated plate, substrate in PBS pH 7.2; supernatant diluted 1:64
# [4] = biological target: GIT mucin; assay: specificity/enzyme activity assay, GIT mucin-coated plate (negative control), substrate in PBS pH 7.2; supernatant diluted 1:64
# [5] = biological target: CEA (carcinoembryonic antigen) (UniProt P06731); assay: specificity/enzyme activity assay, CEA-coated plate, substrate in PBS pH 7.2; supernatant diluted 1:32
# [6] = biological target: CEA (carcinoembryonic antigen) (UniProt P06731); assay: specificity/enzyme activity assay, CEA-coated plate, substrate in 0.2 M sodium acetate buffer + 0.01% BSA pH 5; supernatant diluted 1:128
# [7] = biological target: CEA (carcinoembryonic antigen) (UniProt P06731); assay: specificity/enzyme activity assay, CEA-coated plate, substrate in 0.2 M sodium acetate buffer + 0.01% BSA pH 5; supernatant diluted 1:16
# [8] = biological target: GIT mucin; assay: specificity/enzyme activity assay, GIT mucin-coated plate (negative control), substrate in PBS pH 7.2; supernatant diluted 1:8
# [9] = biological target: CEA (carcinoembryonic antigen) (UniProt P06731); assay: specificity/enzyme activity assay, CEA-coated plate, substrate in 0.2 M sodium acetate buffer + 0.01% BSA pH 5; supernatant diluted 1:32
# [10] = biological target: CEA (carcinoembryonic antigen) (UniProt P06731); assay: specificity/enzyme activity assay, CEA-coated plate, substrate in 0.2 M sodium acetate buffer + 0.01% BSA pH 5; supernatant diluted 1:8
# [11] = biological target: CEA (carcinoembryonic antigen) (UniProt P06731); assay: specificity/enzyme activity assay, CEA-coated plate, substrate in 0.2 M sodium acetate buffer + 0.01% BSA pH 5; supernatant diluted 1:4
# [12] = biological target: GIT mucin; assay: specificity/enzyme activity assay, GIT mucin-coated plate (negative control), substrate in PBS pH 7.2; supernatant diluted 1:32
# [13] = biological target: GIT mucin; assay: specificity/enzyme activity assay, GIT mucin-coated plate (negative control), substrate in PBS pH 7.2; supernatant diluted 1:128
# [14] = biological target: CEA (carcinoembryonic antigen) (UniProt P06731); assay: competitive ELISA on CEA-coated plates; competitor murine MAb BW 431/26 at 5 ng/ml, detected with goat anti-mouse Ig-alkaline phosphatase
# [15] = biological target: GIT mucin; assay: specificity/enzyme activity assay, GIT mucin-coated plate (negative control), substrate in PBS pH 7.2; supernatant diluted 1:4
# [16] = biological target: CEA (carcinoembryonic antigen) (UniProt P06731); assay: specificity/enzyme activity assay, CEA-coated plate, substrate in PBS pH 7.2; supernatant diluted 1:2
# [17] = biological target: CEA (carcinoembryonic antigen) (UniProt P06731); assay: specificity/enzyme activity assay, CEA-coated plate, substrate in PBS pH 7.2; supernatant diluted 1:8
# [18] = biological target: CEA (carcinoembryonic antigen) (UniProt P06731); assay: specificity/enzyme activity assay, CEA-coated plate, substrate in 0.2 M sodium acetate buffer + 0.01% BSA pH 5; supernatant concentrated
# [19] = biological target: CEA (carcinoembryonic antigen) (UniProt P06731); assay: specificity/enzyme activity assay, CEA-coated plate, substrate in PBS pH 7.2; supernatant concentrated
# [20] = biological target: CEA (carcinoembryonic antigen) (UniProt P06731); assay: specificity/enzyme activity assay, CEA-coated plate, substrate in PBS pH 7.2; supernatant diluted 1:128
# [21] = biological target: CEA (carcinoembryonic antigen) (UniProt P06731); assay: specificity/enzyme activity assay, CEA-coated plate, substrate in 0.2 M sodium acetate buffer + 0.01% BSA pH 5; supernatant diluted 1:2
# [22] = biological target: GIT mucin; assay: specificity/enzyme activity assay, GIT mucin-coated plate (negative control), substrate in PBS pH 7.2; supernatant diluted 1:16
# [23] = biological target: GIT mucin; assay: specificity/enzyme activity assay, GIT mucin-coated plate (negative control), substrate in PBS pH 7.2; supernatant diluted 1:2
# [24] = biological target: CEA (carcinoembryonic antigen) (UniProt P06731); assay: specificity/enzyme activity assay, CEA-coated plate, substrate in PBS pH 7.2; supernatant diluted 1:16
# [25] = biological target: CEA (carcinoembryonic antigen) (UniProt P06731); assay: specificity/enzyme activity assay, CEA-coated plate, substrate in PBS pH 7.2; supernatant diluted 1:4
# Chain of UniProt P06731 (P06731 35-685 limits assumed): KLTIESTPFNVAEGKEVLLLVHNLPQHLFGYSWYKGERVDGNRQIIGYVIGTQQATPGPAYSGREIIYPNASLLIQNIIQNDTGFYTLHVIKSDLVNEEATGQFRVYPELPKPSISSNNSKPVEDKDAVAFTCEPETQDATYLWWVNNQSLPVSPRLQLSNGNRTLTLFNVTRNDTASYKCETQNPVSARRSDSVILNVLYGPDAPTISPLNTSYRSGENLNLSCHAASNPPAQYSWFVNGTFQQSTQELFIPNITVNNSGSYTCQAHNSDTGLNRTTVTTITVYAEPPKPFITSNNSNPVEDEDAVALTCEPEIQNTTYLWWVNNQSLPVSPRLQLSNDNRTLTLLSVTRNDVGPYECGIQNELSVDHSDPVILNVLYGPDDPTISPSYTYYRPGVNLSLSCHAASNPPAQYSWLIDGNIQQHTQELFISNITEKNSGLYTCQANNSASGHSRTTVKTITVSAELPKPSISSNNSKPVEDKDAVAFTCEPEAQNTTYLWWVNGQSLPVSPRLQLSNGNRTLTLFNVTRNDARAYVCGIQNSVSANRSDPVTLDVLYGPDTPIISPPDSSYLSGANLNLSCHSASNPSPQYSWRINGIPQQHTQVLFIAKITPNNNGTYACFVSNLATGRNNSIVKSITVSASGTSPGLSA
substance,measurement,setting,value
431/26 hum VH huβGlc 1H fusion protein (from UniProt P01860 1-98; P01860 99-115; P08236 23-651),fluorescence of 4-methylumbelliferol liberated by plate-bound fusion protein,[1],116
same,fluorescence of 4-methylumbelliferol liberated by plate-bound fusion protein,[2],425
same,fluorescence of 4-methylumbelliferol liberated by plate-bound fusion protein,[3],99.3
same,fluorescence of 4-methylumbelliferol liberated by plate-bound fusion protein,[4],48.2
same,fluorescence of 4-methylumbelliferol liberated by plate-bound fusion protein,[5],168
same,fluorescence of 4-methylumbelliferol liberated by plate-bound fusion protein,[6],192
same,fluorescence of 4-methylumbelliferol liberated by plate-bound fusion protein,[7],1660
same,fluorescence of 4-methylumbelliferol liberated by plate-bound fusion protein,[8],60.7
same,fluorescence of 4-methylumbelliferol liberated by plate-bound fusion protein,[9],853
same,fluorescence of 4-methylumbelliferol liberated by plate-bound fusion protein,[10],2930
same,fluorescence of 4-methylumbelliferol liberated by plate-bound fusion protein,[11],4660
same,fluorescence of 4-methylumbelliferol liberated by plate-bound fusion protein,[12],40.4
same,fluorescence of 4-methylumbelliferol liberated by plate-bound fusion protein,[13],47.5
same,molar excess of competitor at 50% inhibition,[14],200 molar excess
same,fluorescence of 4-methylumbelliferol liberated by plate-bound fusion protein,[15],73.4
same,fluorescence of 4-methylumbelliferol liberated by plate-bound fusion protein,[16],2140
same,fluorescence of 4-methylumbelliferol liberated by plate-bound fusion protein,[17],618
same,fluorescence of 4-methylumbelliferol liberated by plate-bound fusion protein,[18],9120
same,fluorescence of 4-methylumbelliferol liberated by plate-bound fusion protein,[19],2720
same,fluorescence of 4-methylumbelliferol liberated by plate-bound fusion protein,[20],57.9
same,fluorescence of 4-methylumbelliferol liberated by plate-bound fusion protein,[21],7680
same,fluorescence of 4-methylumbelliferol liberated by plate-bound fusion protein,[22],53.7
same,fluorescence of 4-methylumbelliferol liberated by plate-bound fusion protein,[23],93.4
same,fluorescence of 4-methylumbelliferol liberated by plate-bound fusion protein,[24],332
same,fluorescence of 4-methylumbelliferol liberated by plate-bound fusion protein,[25],1200
humanized MAb BW 431/26 (antibody),molar excess of competitor at 50% inhibition,[14],200 molar excess
